Data from doi:10.1101/2020.06.18.159665 (bioRxiv, 2020).
Several values for one entry are separate records, joined by “and”; a condition that tells them apart may be missing. Equal entries are not always repeated.

Key:
[1] = target: 6X-HisGSK3β purchased from Signalchem (G09-10H-05) (human, UniProt P49841 1-420); test: MST
[2] = target: N- and C-terminal double His-tagged GSK3β (His-GSK3β-His) (human, UniProt P49841 1-420); test: SPR
[3] = target: biotinylated 6X-His-GSK3β (human, UniProt P49841 1-420, biotin (site not stated)); test: BLI
Sequence of biotinylated 6X-His-GSK3β (P49841 whole entry): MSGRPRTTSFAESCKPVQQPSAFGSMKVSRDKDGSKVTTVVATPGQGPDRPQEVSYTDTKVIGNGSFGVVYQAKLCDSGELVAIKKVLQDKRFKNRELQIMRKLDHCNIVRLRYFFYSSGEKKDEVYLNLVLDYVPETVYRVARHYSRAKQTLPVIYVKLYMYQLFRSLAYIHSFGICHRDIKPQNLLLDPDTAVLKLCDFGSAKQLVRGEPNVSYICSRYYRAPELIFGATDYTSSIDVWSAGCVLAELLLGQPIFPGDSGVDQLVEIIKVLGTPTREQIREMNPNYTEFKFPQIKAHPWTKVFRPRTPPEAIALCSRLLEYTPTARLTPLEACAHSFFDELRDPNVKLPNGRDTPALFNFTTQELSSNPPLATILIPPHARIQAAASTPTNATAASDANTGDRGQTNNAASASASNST

Sequence of N- and C-terminal double His-tagged GSK3β (His-GSK3β-His) (P49841 whole entry): as above
Sequence of 6X-HisGSK3β purchased from Signalchem (G09-10H-05) (P49841 whole entry): as above

Binder	Kd [1] [µM]	koff [2] [s⁻¹]	kon [2] [M⁻¹ s⁻¹]	Kd [3]	Kd [2]
PEVPPTPPGSHSAFTSSFSFIRLSLGSAGERGEAEGCPPSREAE (peptide, UniProt Q9NRI5 193-236, looked up) [hDISCtide, 44-mer peptide derived from human DISC1 (residues 193-236)]	5.7	0.000249	495 ± 31.4		
DPHRLLQQLVLSGNLIKEAVRRLHS [FRATide]				3.6 µM and 3.8 µM	1.9 µM and 3.2 µM
VEPQKFAEELIHRLEAVQ [AxinGID]				63.6 µM	
